Values of other authors as cited in article PMC3074115.

Assays:
[1] = target: Ferrochelatase (Homo sapiens) (UniProt P22830); test: ITC
[2] = target: IscU (Escherichia coli) (UniProt P0ACD4); test: ITC and SPR
IscU (Escherichia coli), sequence (P0ACD4 whole entry): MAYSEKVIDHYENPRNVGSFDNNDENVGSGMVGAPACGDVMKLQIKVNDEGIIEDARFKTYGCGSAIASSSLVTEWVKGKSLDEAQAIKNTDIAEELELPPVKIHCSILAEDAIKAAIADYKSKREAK

Ferrochelatase (Homo sapiens), sequence (P22830 55-423): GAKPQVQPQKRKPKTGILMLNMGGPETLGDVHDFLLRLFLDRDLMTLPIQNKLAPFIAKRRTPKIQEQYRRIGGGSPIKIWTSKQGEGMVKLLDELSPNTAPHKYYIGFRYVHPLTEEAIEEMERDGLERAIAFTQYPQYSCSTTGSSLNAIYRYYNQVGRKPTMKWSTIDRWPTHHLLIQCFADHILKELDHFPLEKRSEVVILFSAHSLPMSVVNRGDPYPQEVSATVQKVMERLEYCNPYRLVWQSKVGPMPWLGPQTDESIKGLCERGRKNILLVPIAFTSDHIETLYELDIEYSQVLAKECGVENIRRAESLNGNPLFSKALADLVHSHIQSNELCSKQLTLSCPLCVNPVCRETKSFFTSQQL
IscS, sequence (P0A6B7 whole entry): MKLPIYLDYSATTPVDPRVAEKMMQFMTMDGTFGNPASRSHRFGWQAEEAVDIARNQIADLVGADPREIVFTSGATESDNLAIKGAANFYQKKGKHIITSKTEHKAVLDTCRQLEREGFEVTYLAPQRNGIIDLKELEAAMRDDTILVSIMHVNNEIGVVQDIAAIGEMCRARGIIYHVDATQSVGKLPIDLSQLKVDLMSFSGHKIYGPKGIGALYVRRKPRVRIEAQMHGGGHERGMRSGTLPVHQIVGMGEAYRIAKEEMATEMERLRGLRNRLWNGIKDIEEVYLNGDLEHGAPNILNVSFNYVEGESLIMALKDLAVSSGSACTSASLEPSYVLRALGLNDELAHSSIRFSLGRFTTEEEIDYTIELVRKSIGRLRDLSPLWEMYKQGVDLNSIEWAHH

Row | Kd [1] [nM] | Substance | Kd [2] [nM]
1 | 17 | Frataxin (from UniProt Q16595) | –
2 | – | IscS (from UniProt P0A6B7) | 2000
